The experiment has as its target Slik coiled-coil C-terminal domain (Slik^CCD) (Drosophila). In words: SEC; purified Slik^CCD on a Superdex 75 10/300 column in 20 mM Tris-HCl pH 7.5, 150 mM NaCl, 2 mM DTT; elution peak at 95.45 kDa.

Experimental findings from PMC12000455 are described below.

The stoichiometry N is the number of molecules, sites or subunits per partner or assembly.

“Slik coiled-coil C-terminal domain (Slik^CCD) (domain or fragment)” came in with a stoichiometry N of 2.
